T1: N-terminally His6-tagged PoyA (polytheonamide precursor peptide)
T1 chain: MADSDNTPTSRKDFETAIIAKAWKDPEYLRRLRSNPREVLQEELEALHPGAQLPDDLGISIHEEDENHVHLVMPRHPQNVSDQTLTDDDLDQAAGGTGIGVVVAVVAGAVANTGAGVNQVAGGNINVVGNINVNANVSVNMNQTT

T2: Nhis-PoyA121 (truncated variant of PoyA, residues 1-121, with the first 24 core amino acids)
T2 chain: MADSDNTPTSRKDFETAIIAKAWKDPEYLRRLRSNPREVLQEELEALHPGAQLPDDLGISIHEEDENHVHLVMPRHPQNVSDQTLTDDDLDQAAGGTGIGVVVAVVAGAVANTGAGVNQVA

B1: PoyF (LanM, N-terminal dehydratase domain) (protein)
chain: MMSSSSSREGDALAHAADPTRSIADDITCGLDSLGGPPTVCDAEHPVPFEELWLGFVAHAARALEPLIAPSLHAAVLHDPHGPLRSLLIELAEMGAPAAFELFALYRIREASAASVFGSVRGVESRDTYNAFVKHLATQQLSPLWDAFPALKPLLATRTNLFIAAMAELCQRWEADHVEIMSVFPELRGIGAPQRIRPGLSDAHGGGRTVTRLSFAGGEALFYKPRPVDMEWGCAQFVEWFNGQDHGMPPLRALSVLPRTDYGWMEAARPALCTHVDAVARFYHRAGMLLALADLFCGVDFHSENLIASGEYPVIVDLETLFHPLGPFESQGDALERTELLPRPIYCEDGAPYVICGLGVVPGKAVIELRRRGWININCDNMASCDVTVPWPVGGAVPRNKEGAAPSIATWSGEIVSGFSAMHVFFRTRRNELWSADGPIVQAFGGGRSRFLLRATRIYVELLRRAVQPQALAAHASSSHIFDRLARTGRGWDEIHRVERQALDRMDVPYFTMETTAQFVRGEGRTIHAFFATSGLHMARRRSEFIDDVILNDRAASIRNVLEQSSYSGEATLPDSRVQTDAGAGA
B2: PoyE (SAM-dependent methyltransferase (nucleophilic)) (protein)
chain: MTPRSLPTEPLAAPAAAALDAALRLLKEYLDDIGYHGIYKYLATANYYAASPSVFNASRPQSLEAFDRQIHEGPDDWMLARCLTTCAPCRLEALPPPARRVAEVLADVGLLVWNGNTLEQGGYQLISVFDRYILLDARIHFGGSQLHDVYIGPDSHLLLYYMPVEAIRPADHILDLCTGTGVIGLGLSRFSEHVVSTDIAPPALRLAHMNRALNNAEGRVSIRAENLQETLASDECFDLIACNPPYVAAPPELPTPLYAQGPDRDGLGYLRLLMERAPEKLNPGGQAMFVVDLIGDTHRPYYFDDLERIAKEQELFIEAFIDNRLKADGQLPAYKFLYARLFHGTPPEEIEQRMRNFIFDELHAYYYYMTTLRVRRRKPSGLRVLDRYRITSYDEFFQQS

How the values were obtained:
[1] = biological target: T1, N-terminally His6-tagged PoyA …
[2] = biological target: T2, Nhis-PoyA121 (truncated variant of …)

Row | Protein | mass shift of PoyA (ESI-MS) on co-expression; modified residue by LC/MS/MS [1] | number of methylations on PoyA (MS, +14 mass units each) [1] | methylation of the C-terminal tryptic peptide 76-121 (LC-ESI/ECD-MS/MS) [2]
1 | B1 | produced PoyA with a mass 18 Da less than expected (observed 17090 Da, calculated 17108 Da |  | 
2 | B2 |  | a suite of peptides increasing by 14 mass units (0 to 8 modifications) | Near quantitative monomethylation was observed in this sample, with no evidence of multiple methylation. ECD fragmentation located the site of methylation exclusively to Asn112 (in full-length PoyA numbering)

Source: US20140234903
